Measurements reported in patent US20260109770A1 (REMD BIOTHERAPEUTICS, published 2026).
Residue numbers refer to the chain shown, from its start. In names and notes the source's numbering stands. Like-named read-outs stand apart in the source and are kept apart here.

Experiments:
[1] = target: T1, biotinylated recombinant human CTLA-4-Fc chimera (#786704, BioLegend) (human, UniProt P16410 37-162, biotinylated); test: flow cytometry: hCCR8-expressing HEK293 cells pre-loaded with the antibody, washed, incubated with biotinylated human CTLA-4-Fc, detected with PE-streptavidin [panel C]
T1 construct: Bought reagent; Fc part of the bought chimera not given
T1 sequence (looked up): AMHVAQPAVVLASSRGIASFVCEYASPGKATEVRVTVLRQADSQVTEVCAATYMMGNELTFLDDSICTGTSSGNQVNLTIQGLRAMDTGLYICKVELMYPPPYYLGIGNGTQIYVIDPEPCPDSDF
Experimental: (§1) Bispecific antibodies FP578-01 and FP578-02 and anti-hCCR8 antibodies 504E12D8D12-HC1+LC1 (G34A) and 504E12D8D12-HC1+LC1 were incubated with hCCR8-expressing HEK293 cells for 1 hour at 4° C. The cells were washed and then incubated with biotinylated recombinant human CTLA-4-Fc chimera (#786704, BioLegend) for 1 hour at 4° C. After the cells were thoroughly washed, CTLA-4 was detected with phycoerythrin (PE)-conjugated streptavidin (#405203, BioLegend) by flow cytometry.

[2] = target: T2, human C-C chemokine receptor type 8 (hCCR8) (human, UniProt P51685 1-355); test: KinExA, hCCR8-expressing cells
T2 construct: also called human CCR8
T2 sequence (P51685 whole entry): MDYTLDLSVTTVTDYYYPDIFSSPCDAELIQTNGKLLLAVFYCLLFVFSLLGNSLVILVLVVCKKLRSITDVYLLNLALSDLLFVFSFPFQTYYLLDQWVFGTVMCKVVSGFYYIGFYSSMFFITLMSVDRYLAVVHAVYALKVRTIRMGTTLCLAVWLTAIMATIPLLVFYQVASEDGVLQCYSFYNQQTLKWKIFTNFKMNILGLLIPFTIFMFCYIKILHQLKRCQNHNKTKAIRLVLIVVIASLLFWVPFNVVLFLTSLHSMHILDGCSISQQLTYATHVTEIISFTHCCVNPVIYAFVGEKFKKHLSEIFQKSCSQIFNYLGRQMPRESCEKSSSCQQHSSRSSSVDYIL
Experimental: (§2) Humanized antibodies 504E12D8D12-HC1+LC1 and 504E12D8D12-HC1+LC1 (G34A) were tested by the Kinetic Exclusion Assay (KinExA, Sapidyne Instruments) to determine the affinity of binding to hCCR8-overexpressing cells. Briefly, polystyrene particles (#442178, Sapidyne Instruments) were coated with goat anti-human IgG Fc-specific Fab fragment (#109-007-008, Jackson ImmunoResearch Lab) according to the manufacturer's protocol. The antibodies were incubated with serial dilutions of hCCR8-expressing HEK293 cells at room temperature overnight by gently rotating to achieve equilibrium. The final antibody concentrations were adjusted to 0.05 nM and 1 nM, respectively. The supernatants were collected and run on KinExA 3200 (Sapidyne Instruments), and the antibody was captured by the coated polystyrene particles. The captured antibody was detected with Alexa Fluor 647-conjugated goat anti-human IgG (H+L) antibody (#109-605-003, Jackson ImmunoResearch Lab). Data was recorded and analyzed using KinExA Pro software (version 4.3.20).
The affinity of bispecific antibodies FP578-01 and FP578-02 were determined by the kinetic exclusion assay as described above.

[3] = target: T2, human C-C chemokine receptor type 8 …; test: cell-based or functional assay
[4] = target: T1, biotinylated recombinant human …; test: flow cytometry: hCCR8-expressing HEK293 cells pre-loaded with the antibody, washed, incubated with biotinylated human CTLA-4-Fc, detected with PE-streptavidin [panel D]
Experimental: as §1

[5] = target: T2, human C-C chemokine receptor type 8 …; test: cell-based or functional assay; remark: listed apart in the source
[6] = target: T2, human C-C chemokine receptor type 8 …; test: cell-based or functional assay; remark: listed apart in the source
human CCR4 (hCCR4) = target: T3, human CCR4 (hCCR4) (human, UniProt P51679 1-360); test: flow cytometry on hCCR4-expressing CHO-K1 cells against parental CHO-K1 cells
T3 construct: whole, on cells
T3 sequence (looked up): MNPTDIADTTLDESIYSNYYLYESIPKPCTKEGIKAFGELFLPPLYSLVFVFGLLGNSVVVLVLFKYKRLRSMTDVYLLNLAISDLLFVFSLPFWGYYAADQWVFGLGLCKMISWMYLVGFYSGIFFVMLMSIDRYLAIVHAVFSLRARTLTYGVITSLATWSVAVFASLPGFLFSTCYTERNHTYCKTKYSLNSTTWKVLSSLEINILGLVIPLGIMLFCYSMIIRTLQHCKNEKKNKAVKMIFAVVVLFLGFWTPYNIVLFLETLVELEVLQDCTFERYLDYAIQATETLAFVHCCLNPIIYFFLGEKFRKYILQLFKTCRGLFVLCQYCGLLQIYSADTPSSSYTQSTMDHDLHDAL
Experimental: The antibodies were further screened for binding to human CCR4 (hCCR4) by flow cytometry. The antibodies were incubated with CHO-K1 cells and hCCR4-expressing CHO-K1 cells for 60 minutes at 4° C. The cells were washed thoroughly with PBS buffer and were then incubated with FITC-conjugated goat anti-mouse IgG Fc antibody or anti-human IgG Fc antibody. Mean Fluorescence Intensity (MFI) of antibody binding on the cells were analyzed by flow cytometry (Table 7).

[7] = target: T2, human C-C chemokine receptor type 8 …; test: cell-based or functional assay; remark: listed apart in the source
[8] = target: T1, biotinylated recombinant human …; test: flow cytometry: hCCR8-expressing HEK293 cells pre-loaded with the antibody, washed, incubated with biotinylated human CTLA-4-Fc, detected with PE-streptavidin [panel B]
Experimental: as §1

[9] = target: T2, human C-C chemokine receptor type 8 …; test: cell-based or functional assay; remark: listed apart in the source
[10] = target: T2, human C-C chemokine receptor type 8 …; test: KinExA, hCCR8-expressing HEK293 cells
Experimental: as §2

[11] = target: T1, biotinylated recombinant human …; test: flow cytometry: hCCR8-expressing HEK293 cells pre-loaded with the antibody, washed, incubated with biotinylated human CTLA-4-Fc, detected with PE-streptavidin [panel A]
Experimental: as §1

B1: bispecific antibody FP578-01 (CCR8/CTLA-4) (bispecific antibody, human IgG1, kappa)
heavy: not shown
light: DIVMTQTPPSLPVNPGEPASISCRSSKSLLHSNANTYLYWYLQKPGQSPQLLIYRMSNLASGVPDRFSGSGSGSDFTLKISWVEAEDVGVYYCMQHLEYPFTFGGGTKLEIKRTVAAPSVFIFPPSDEQLKSGTASVVCLLNNFYPREAKVQWKVDNALQSGNSQESVTEQDSKDSTYSLSSTLTLSKADYEKHKVYACEVTHQGLSSPVTKSFNRGEC
Q: What does the source list for B1?
A: binding result [1]: binds; Kd [2]: 0.102 nM; IC50 (nM), antagonist activity measured by β-arrestin assay [3]: 4.26 nM

B2: bispecific antibody FP578-02 (CCR8/CTLA-4) (bispecific antibody, human IgG1, kappa)
heavy: not shown
light: B1 light with A34G
Q: How did the Kd [2] turn out when B2 was run?
A: 0.104 nM

Q: And the “IC50 (nM), antagonist activity measured by β-arrestin assay” value [3]?
A: 3.6 nM

Q: Does B2 bind [4]?
A: binds

B3: murine-human chimeric (human IgG1) antibody 531B9B1C9 (antibody, V domains shown)
VH: EVQLVESGGGLVQPKGSLKLSCAASGFSFNAYAMNWVRQAPGKGLDWVARIRSKSNNYATYYADSVKDRFTISRDDSESMLYLQMNNLKTEDTAMYFCVRQTYGSRDYAMDYWGQGTSVTVSS
VL: DVVMTQTPLSLPVSLGDQASISCRSSQSLVHSNGNTYLHWYLQKPGQSPKLLIYKVSNRFSGVPDRFSGSGSGTDFTLKISRVEAEDLGVYFCCQSTHVPPYTFGGGTKLEIKR
notes: Chimeric antibody derived from murine antibody A13 and human IgG1
Q: Which “EC50 of ADCC activity (column head prints IC50 (nM)); ADCC/NFAT-reporter-Jurkat bioassay” value [5] does the source give for B3 here?
A: 0.028 nM

Q: And the “IC50 (nM), antagonist activity measured by β-arrestin assay” value [6]?
A: 2.18 nM

Q: Does B3 bind (human CCR4 (hCCR4))?
A: no binding

B4: humanized antibody 41E1C2A5-HC3+LC4 (antibody, human IgG1, kappa, V domains shown)
VH: EVQLVESGGGLVQPGGSLKLSCAASGFSFNAYAMNWVRQASGKGLEWVARIRSKSNNYATYYADSVKDRFTISRDDSKNTAYLQMNSLKTEDTAVYFCVRGGTYGSSSYFDYWGQGTTVTVSS
VL: DIVMTQSPLSLPVTPGEPASIPCRSSKSLLHSNGNTYLYWFLQKPGQSPQLLIYRMSNLASGVPDRFSGSGSGTAFTLKISRVEAEDVGVYYCMQHLEYPFTFGGGTKLEIKR
Q: Which “IC50 (nM), antagonist activity measured by calcium flux assay” value (shortened to “IC50 (nM) … by calcium flux assay”) [7] does the source give for B4 here?
A: 25.3 nM

B5: humanized antibody 504E12D8D12-HC1+LC1 (antibody, human IgG1, kappa, V domains shown)
VH: EVQLVESGGGLVQPGGSLKLSCAASGFSFNTYAMNWVRQASGKGLEWVGRIRTKSNNYATYYAASVKDRFTISRDDSKNTAYLQMNSLKTEDTAVYYCTRGGSGLNYVRYFDVWGQGTTVTVSS
VL: B4 VL with S7T, L9P, T14N, P22S, F41Y, T74S, A75D, R82W
Q: Does B5 bind [8]?
A: no binding

Q: And the “IC50 (nM) … by calcium flux assay” value [9]?
A: 8.6 nM

Q: What about the Kd [10] of the same binder?
A: 0.072 nM

B6: humanized antibody 504E12D8D12-HC1+LC1(G34A) (antibody, human IgG1, kappa, V domains shown)
VH: B5 VH
VL: B4 VL with S7T, L9P, T14N, P22S, G34A, F41Y, T74S, A75D, R82W
Q: Does B6 bind [11]?
A: no binding

Q: What about the “IC50 (nM) … by calcium flux assay” value [9] of the same binder?
A: 14.4 nM

Q: And the Kd [10]?
A: 0.072 nM

B7: humanized antibody 41E1C2A5-HC4+LC2 (antibody, human IgG1, kappa, V domains shown)
VH: B4 VH with K78E
VL: B4 VL with P22S
Q: Which “IC50 (nM) … by calcium flux assay” value [7] does the source give for B7 here?
A: 13.1 nM
